# Experimental data published in patent publication US20220041715A1.
# Read-outs that look alike come from different tables or passages of the source.
# What was measured:
# [1] = target: SARS-CoV-2 receptor binding domain (RBD) (SARS-CoV-2) (UniProt P0DTC2); assay: ELISA
# [2] = target: SARS-CoV-2 receptor binding domain (RBD) (SARS-CoV-2) (UniProt P0DTC2); assay: ELISA; remark: listed apart in the source
# [3] = target: SARS CoV RBD (SARS-CoV) (UniProt P59594); assay: ELISA
# [4] = target: HCoV-229E S1 (HCoV-229E) (UniProt P15423); assay: ELISA
# [5] = target: HCoV-NL63 S1 (HCoV-NL63) (UniProt Q6Q1S2); assay: ELISA
# [6] = target: SARS-CoV-2 spike S1 (SARS-CoV-2) (UniProt P0DTC2); assay: ELISA
# [7] = target: MERS CoV S1 (MERS CoV) (UniProt K9N5Q8); assay: ELISA
# [8] = target: SARS-CoV-2 receptor binding domain (RBD) (SARS-CoV-2) (UniProt P0DTC2); assay: RBD:ACE2 blocking ELISA (RBD coated, ACE2-His)
# [9] = target: SARS-CoV-2 spike on GFP reporter pseudotype virus (Wuhan-Hu-1) (SARS-CoV-2) (UniProt P0DTC2); assay: cell-based or functional assay
Substance,EC50 [1] [µg/mL],EC50 [2] [µg/mL],peak OD signal [2] [OD],EC50 [3] [µg/mL],EC50 [4] [µg/mL],EC50 [5] [µg/mL],EC50 [6] [µg/mL],peak OD signal [6] [OD],EC50 [7] [µg/mL],IC50 [8] [µg/mL],CoV-2 pseudotype neutralization IC50 [9] [µg/mL]
IVIG (Gamunex; Grifols) (antibody),1250,1270,2.26,1280,96,140,1410,1.99,1330,,
rCIG (recombinant coronavirus-2 immune globulin; recombinant anti-coronavirus 19 hyperimmune gammaglobulin) (antibody),,0.1,,0.6,,,0.092,,,2.2,0.43
